The values below are quoted from earlier work in article PMC3343272.

In general, Kd refers to a measure of binding affinity in units of concentration.

This series has as its target Nonmuscle myosin IIA M32 1907-1938 (Homo sapiens) (UniProt P35579). Description: kinetic assay.

Nonmuscle myosin IIA M32 1907-1938 (Homo sapiens), sequence (P35579 1907-1938): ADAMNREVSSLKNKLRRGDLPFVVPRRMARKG
S100A4, sequence (P26447 2-101): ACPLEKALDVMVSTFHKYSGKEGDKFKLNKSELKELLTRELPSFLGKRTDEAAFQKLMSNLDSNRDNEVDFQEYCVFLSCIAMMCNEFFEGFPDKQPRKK

S100A4 (from UniProt P26447): the Kd was 3 µM.
